Measured values taken from publication PMC4566977, “Identification and characterization of Arabidopsis AtNUDX9 as a GDP-d-mannose pyrophosphohydrolase: its involvement in root growth inhibition in response to ammonium” (Journal of Experimental Botany, 2015).

Substrate: Nc1nc2c(ncn2[C@@H]2O[C@H](COP(=O)(O)OP(=O)(O)O[C@H]3O[C@H](CO)[C@@H](O)[C@H](O)[C@@H]3O)[C@@H](O)[C@H]2O)c(=O)[nH]1
Experiment: purified protein
Assay type: biochemical, Arabidopsis thaliana
Conditions: 50 mM Tris-HCl pH 8.0, 5 mM MgCl2, 37 °C, 10 min, GDP-D-Man 50 μM to 2 mM, apparent Km

B1: AtNUDX9 (Arabidopsis thaliana) (protein)
chain: MAKLAEEMNPEGSRYQLLLSCPSGLSPSQVSVDFSKSHDRIPRQDPGLEDSISQVWEQRSQGNSSLFNGQKFRYGGYCLDDDDGSTNEVPHVCLRLGLTDYRTFVGTNLSSLWEKFLVTSEDDSVRCRHTSSPLGNGAVIETSDKKIIVLRRSNNVGEFPGHYVFPGGHPEPTAVGIDYHQLENNVQTGEVLNKKVTQEMFDSIICEVVEETGIPASSLSSPLFIGISRRELNVRPAMFFYLKCSHHSDDIQRLYSSAEDGFESTQLHTVSLDELKMMTSRMPGCHHGGFALYELMLQRLKNTKETSLIAT
notes: recombinant with hexahistidine tag (pCold II), expressed in E. coli BL21(DE3) pLysS, His Trap HP purified
Km: 376 ± 24 µM
Vmax: 1.61 µmol/min/mg
kcat: 0.93 ± 1.5 s⁻¹
kcat/Km: 2400 M⁻¹ s⁻¹
